Assay in all cases: pull-down
The target of assay [1] is T1, CBP-Upf1-FL (S.c. Upf1 full-length) (S. cerevisiae, UniProt P30771 1-971).
T1 sequence: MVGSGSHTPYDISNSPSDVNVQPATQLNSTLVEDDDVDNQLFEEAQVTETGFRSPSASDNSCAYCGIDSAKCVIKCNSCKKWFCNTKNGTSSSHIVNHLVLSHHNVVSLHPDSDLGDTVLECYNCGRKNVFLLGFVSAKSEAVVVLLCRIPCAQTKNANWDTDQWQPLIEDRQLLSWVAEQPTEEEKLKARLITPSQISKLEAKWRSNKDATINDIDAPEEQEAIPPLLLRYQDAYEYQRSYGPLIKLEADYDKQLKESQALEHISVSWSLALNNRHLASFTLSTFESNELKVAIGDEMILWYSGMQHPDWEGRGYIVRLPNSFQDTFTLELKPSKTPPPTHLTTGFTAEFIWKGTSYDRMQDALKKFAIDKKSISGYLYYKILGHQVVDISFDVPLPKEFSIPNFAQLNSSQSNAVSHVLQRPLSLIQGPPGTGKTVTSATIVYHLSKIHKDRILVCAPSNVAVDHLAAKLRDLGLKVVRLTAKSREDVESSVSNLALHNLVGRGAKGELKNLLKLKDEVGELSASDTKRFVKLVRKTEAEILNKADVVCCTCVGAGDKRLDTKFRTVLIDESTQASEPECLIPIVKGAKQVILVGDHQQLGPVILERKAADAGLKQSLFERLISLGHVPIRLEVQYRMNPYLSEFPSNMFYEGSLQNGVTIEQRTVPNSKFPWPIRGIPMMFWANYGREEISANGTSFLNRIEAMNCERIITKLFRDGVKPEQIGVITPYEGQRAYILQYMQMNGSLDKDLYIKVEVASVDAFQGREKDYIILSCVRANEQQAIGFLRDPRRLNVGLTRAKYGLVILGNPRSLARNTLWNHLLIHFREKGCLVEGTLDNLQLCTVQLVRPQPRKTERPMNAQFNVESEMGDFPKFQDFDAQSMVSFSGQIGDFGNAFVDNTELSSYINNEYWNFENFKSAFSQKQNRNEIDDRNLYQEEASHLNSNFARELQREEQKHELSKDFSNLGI

A further assay concerns the target T2, CBP-Upf1-CH-HD (S. cerevisiae, UniProt P30771 54-851).
T2 sequence: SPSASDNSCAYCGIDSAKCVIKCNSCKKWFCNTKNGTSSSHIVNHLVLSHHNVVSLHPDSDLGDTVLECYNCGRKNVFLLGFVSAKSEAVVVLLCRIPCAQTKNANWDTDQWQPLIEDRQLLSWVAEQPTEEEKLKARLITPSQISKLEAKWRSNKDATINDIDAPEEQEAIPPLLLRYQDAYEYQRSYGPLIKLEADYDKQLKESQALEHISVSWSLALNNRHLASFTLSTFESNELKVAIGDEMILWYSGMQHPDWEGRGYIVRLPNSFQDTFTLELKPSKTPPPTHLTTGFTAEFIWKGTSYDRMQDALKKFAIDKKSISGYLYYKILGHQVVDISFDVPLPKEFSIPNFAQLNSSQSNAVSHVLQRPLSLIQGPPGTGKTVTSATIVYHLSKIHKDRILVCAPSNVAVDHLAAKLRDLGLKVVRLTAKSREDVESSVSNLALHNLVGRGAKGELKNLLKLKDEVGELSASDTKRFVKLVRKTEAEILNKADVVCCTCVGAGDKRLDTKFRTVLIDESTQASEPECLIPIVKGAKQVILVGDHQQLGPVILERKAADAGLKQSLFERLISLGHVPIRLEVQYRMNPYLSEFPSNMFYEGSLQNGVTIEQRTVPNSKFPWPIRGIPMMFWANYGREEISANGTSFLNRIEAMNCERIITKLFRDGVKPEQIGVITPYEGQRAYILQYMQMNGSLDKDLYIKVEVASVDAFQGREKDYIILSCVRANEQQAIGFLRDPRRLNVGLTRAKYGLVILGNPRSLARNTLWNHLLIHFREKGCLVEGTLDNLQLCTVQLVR

For another assay, the target named is T3, CBP-Upf1-HD-Ct (S. cerevisiae, UniProt P30771 221-971).
T3 sequence: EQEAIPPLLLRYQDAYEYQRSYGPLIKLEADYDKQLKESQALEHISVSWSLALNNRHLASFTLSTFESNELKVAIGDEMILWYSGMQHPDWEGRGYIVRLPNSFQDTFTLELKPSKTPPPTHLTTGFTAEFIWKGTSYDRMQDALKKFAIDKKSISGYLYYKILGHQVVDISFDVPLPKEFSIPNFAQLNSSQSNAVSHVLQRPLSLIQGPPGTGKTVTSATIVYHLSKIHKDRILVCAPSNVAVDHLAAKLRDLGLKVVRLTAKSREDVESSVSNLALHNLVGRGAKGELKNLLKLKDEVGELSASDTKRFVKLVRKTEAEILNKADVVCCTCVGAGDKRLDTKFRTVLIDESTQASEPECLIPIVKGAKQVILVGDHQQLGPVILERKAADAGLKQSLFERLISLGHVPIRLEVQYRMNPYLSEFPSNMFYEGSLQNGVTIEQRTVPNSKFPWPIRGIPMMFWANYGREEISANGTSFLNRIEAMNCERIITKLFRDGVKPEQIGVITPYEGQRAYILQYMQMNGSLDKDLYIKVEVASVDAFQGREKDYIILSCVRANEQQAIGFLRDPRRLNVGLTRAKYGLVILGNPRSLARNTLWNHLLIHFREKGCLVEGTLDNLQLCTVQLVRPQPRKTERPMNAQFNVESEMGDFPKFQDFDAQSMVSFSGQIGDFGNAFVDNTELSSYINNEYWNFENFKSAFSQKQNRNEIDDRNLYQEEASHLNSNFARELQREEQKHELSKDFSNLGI

In a further assay the target is T4, CBP-Upf1-HD (S. cerevisiae, UniProt P30771 221-851).
T4 sequence: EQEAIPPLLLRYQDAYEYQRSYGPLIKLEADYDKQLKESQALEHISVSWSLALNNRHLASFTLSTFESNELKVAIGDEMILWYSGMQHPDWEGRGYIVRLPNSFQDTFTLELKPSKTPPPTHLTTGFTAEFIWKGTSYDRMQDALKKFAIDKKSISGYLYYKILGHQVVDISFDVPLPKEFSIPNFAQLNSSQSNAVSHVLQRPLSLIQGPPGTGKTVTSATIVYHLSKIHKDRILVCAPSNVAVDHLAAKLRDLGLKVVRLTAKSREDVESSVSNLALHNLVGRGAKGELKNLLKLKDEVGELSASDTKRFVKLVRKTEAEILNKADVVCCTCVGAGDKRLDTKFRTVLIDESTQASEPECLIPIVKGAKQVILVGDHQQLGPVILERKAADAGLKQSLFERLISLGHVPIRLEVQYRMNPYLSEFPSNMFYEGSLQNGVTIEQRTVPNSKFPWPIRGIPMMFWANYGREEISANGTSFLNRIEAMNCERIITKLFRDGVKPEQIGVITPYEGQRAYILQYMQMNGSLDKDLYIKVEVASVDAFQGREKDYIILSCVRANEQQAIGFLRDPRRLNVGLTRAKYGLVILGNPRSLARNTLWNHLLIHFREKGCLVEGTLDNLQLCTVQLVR

B1: GST-Ebs1 (aa 1-591) (domain or fragment)
chain: MEPSNTQKEDLPTAFNGIKSQLNSILKSNQLFQDYALLNGFLAFVHSKLNAAILTSIESQCGKSFAADLDSFDQSSISSILDFSWESVHYPIFKWFQMWRNYILFEKENKKQQTKFIDFRKMNSKMLKFFKTVQNFYVNVINTVYKKYDISVLLPKRIIQDLKLSDIENTTNVGDILAVKTFNSSSPLAHLIPTLFHRCLLFLGTAYRYKTLLEEISNKYSISNFKKSLDFFRLASLVLPSAGETYSQAGAIFLQTGNLGIAVFNFVKGMMTKMPSPVSIKNFGALMVDNKSSLNRSLHTTIMNTYLQESKGPRTPAKEILEFYFLGLFGSVWSPTSWRDDTKPNQLNNGIKLRHLENALYETMSARYLNNIKTIFHNLIITIGGFHLLLKRRSDVSAKTLKDLRSNELDYLNFAFKYIAHILNDIVKESWSENPEVSEILGMVRIINCWIKANPMVLQYSQSNLEFVNALAYLINDIVKKKPSPSFSITEHIPKRTYWFEEDLMVKGLSFVNFQLSDFDDYEKILEMDHSLDRLIGNPPLCDKLSASSEMLLRLQAVVNISSQLLQNNNCGVEWSDNKSRYIFNKKIGFK
Turning to B1, the binding result in assay [1] is “binds”.

B2: HisSUMO-tagged Ebs1 (aa 1-591) (domain or fragment)
chain: MEPSNTQKEDLPTAFNGIKSQLNSILKSNQLFQDYALLNGFLAFVHSKLNAAILTSIESQCGKSFAADLDSFDQSSISSILDFSWESVHYPIFKWFQMWRNYILFEKENKKQQTKFIDFRKMNSKMLKFFKTVQNFYVNVINTVYKKYDISVLLPKRIIQDLKLSDIENTTNVGDILAVKTFNSSSPLAHLIPTLFHRCLLFLGTAYRYKTLLEEISNKYSISNFKKSLDFFRLASLVLPSAGETYSQAGAIFLQTGNLGIAVFNFVKGMMTKMPSPVSIKNFGALMVDNKSSLNRSLHTTIMNTYLQESKGPRTPAKEILEFYFLGLFGSVWSPTSWRDDTKPNQLNNGIKLRHLENALYETMSARYLNNIKTIFHNLIITIGGFHLLLKRRSDVSAKTLKDLRSNELDYLNFAFKYIAHILNDIVKESWSENPEVSEILGMVRIINCWIKANPMVLQYSQSNLEFVNALAYLINDIVKKKPSPSFSITEHIPKRTYWFEEDLMVKGLSFVNFQLSDFDDYEKILEMDHSLDRLIGNPPLCDKLSASSEMLLRLQAVVNISSQLLQNNNCGVEWSDNKSRYIFNKKIGFK
Consider B2, for which the binding result in assay [1] was “binds”.

B3: GST-Dcp2-UBM1 (aa 434-508) (domain or fragment)
chain: GYSSSSPGQLLDILNSKKPDSNVQSSKKPKLKILQRGTDLNSIKQNNNDETAHSNSQALLDLLKKPTSSQKIHAS
B3: the binding result (in assay [1]; in the assay with CBP-Upf1-CH-HD) was “binds” each time.

VGLSSTTNTVKKVPKVKILKRGETFASLANDKKA (domain or fragment) [GST-Dcp2-UBM2 (aa 687-720)]: the binding result (in assay [1]; with CBP-Upf1-CH-HD) was “binds” in each case.

B4: GST-tagged full-length Dcp1 (aa 1-231) (natural protein)
chain: MTGAATAAENSATQLEFYRKALNFNVIGRYDPKIKQLLFHTPHASLYKWDFKKDEWNKLEYQGVLAIYLRDVSQNTNLLPVSPQEVDIFDSQNGSNNIQVNNGSDNSNRNSSGNGNSYKSNDSLTYNCGKTLSGKDIYNYGLIILNRINPDNFSMGIVPNSVVNKRKVFNAEEDTLNPLECMGVEVKDELVIIKNLKHEVYGIWIHTVSDRQNIYELIKYLLENEPKDSFA
Turning to B4, the binding result (in assay [1]; with CBP-Upf1-HD-Ct; with CBP-Upf1-CH-HD; with CBP-Upf1-HD) was “binds” in each case.

B5: GST-Dcp2-UBM (aa 434-720) (domain or fragment)
chain: GYSSSSPGQLLDILNSKKPDSNVQSSKKPKLKILQRGTDLNSIKQNNNDETAHSNSQALLDLLKKPTSSQKIHASKPDTSFLPNDSVSGIQDAEYEDFESSSDEEVETARDERNSLNVDIGVNVMPSEKDSRRSQKEKPRNDASKTNLNASAESNSVEWGPGKSSPSTQSKQNSSVGMQNKYRQEIHIGDSDAYEVFESSSDEEDGKKLEELEQTQDNSKLISQDILKENNFQDGEVPHRDMPTESNKSINETVGLSSTTNTVKKVPKVKILKRGETFASLANDKKA
For the molecule B5, the binding result (in assay [1]; with CBP-Upf1-CH-HD) was “binds” in each case.

The record behind these values is PMC11897886 (Nucleic Acids Research, 2024).
